In US6492131B1, “Class I-type lysyl-TRNA synthetase” (Yale University, priority 1997, dated 2002):

Substrate: NCCCC[C@H](N)C(=O)O
Assay: Kinetic characterization of LysRS: aminoacylation of M. maripaludis total tRNA with lysine
Format: biochemical, Methanococcus maripaludis
Conditions: other: purified native LysRS 5 nM, 37° C., pH 7.2
Description: To investigate the formation of Lys-tRNA in cell-free extracts prepared from M. maripaludis, (^14C) lysine and homologous total TRNA were used as substrates (6). […] This was confirmed by the observation that (^14C)Lys-tRNA synthesis was inhibited by only one of the 20 canonical amino acids, lysine (FIG. 1). This is consistent with the presence of LysRS, since Lys-tRNA synthesis via a mischarged tRNA would result in a non-labeled amino acid other than lysine being able to inhibit lysylation of tRNA. On the basis of these observations LysRS from M. maripaludis was purified. By standard chromatographic procedures (8), a single 62-kD protein was isolated, which was purified to homogeneity as judged by both silver staining after denaturing polyacrylamide gel electrophoresis (SDS-PAGE) and the appearance of a single symmetrical peak during size exclusion chromatography. […] The enzyme could acylate unfractionated tRNA with lysine to the same degree as the M. maripaludis crude extract (FIG. 1), confirming that the purified protein is LysRS. […] These modified nucleotides have previously been detected at position 34 in all known tRNA^Glu and tRNA^Lys isoacceptors (13).
6. […]
9. […] Sampling and quantification were as described (K. -W. Hong et al., EMBO J. 15, 1983 (1996)).

B1: M. maripaludis LysRS (Methanococcus maripaludis) (protein)
chain: MHWADATSEKIMKKRNAEEYVVSSGITPSGHIHIGNARETLTADAVYKGMLKKGAEAKLIFIADDYDPLRKLYPFLPKEFEKYIGMPLSEIPCPQGCCKSYADHFLMPFLNSLEDLGVEITTHRANECYKAGMYNEAIITALENRLKIKELLDSYRKEPLADNWYPLNVVCEKCGKMHETKVTSYNSEDKTITYVCKCGFENTVQPFNGIGKLPWRVDWPARWNIFGVTAEPMGKDHAASGGSYDTGIKIARQIFNYQAPEKMVYEWIQLKIGDKAMPMSSSSGVVFAVKDWTEICHPEVLRFLILKGKPTKHIDFDLKAISNLVDDYDELERKYFELIEKQKTEELNDNENEKISLYELVTPKIPERLPLQVAYRFCSIIAQIALDKETQKIDMERVFDILGRNGYNPAEFSEYDKSRLEKRLYMSKKWASDYGENLEINDFEQAKEQYETLSEEQKAWLKAFSKEVENIEIDANTIHELMYETATKLNLAPKEAFVASYKILLGKNYGPKLGSFLASLKKEFVIGRFNLTE
For B1, the Km was 2.2 µM and the kcat was 1.6 s⁻¹.
